From patent US8697386B2, “Methods and compositions for modulating hepsin activation of macrophage-stimulating protein” (Genentech, Inc., priority 2009, dated 2014)

Key:
[1] = target: T1, cell surface expressed hepsin in LnCap-34 cells (Homo sapiens, UniProt P05981); assay: Pro-MSP activation by cell surface expressed hepsin in LnCap-34 cells; type: cell-based; conditions: 1 μM inhibitor, 15 minutes preincubation, 125I-pro-MSP 25 μg/ml, 3 hours, 37° C.
T1 construct: expressed in transfected cells; host or cells: LnCaP-34 cells
Protocol: Confluent LnCap-34 cells cultured in 24-well plates were washed with serum-free RPMI-1640 medium and were incubated either alone or with different anti-hepsin inhibitors (1 μM of anti-hepsin antibody Fab25/1 μM of KD1/1 μM of Ac-KQLR-cmk (‘KLQR” disclosed as SEQ ID NO:10)) in serum-free RPMI-1640 medium for 15 minutes at 37° C. prior to addition of 125I-labeled pro-MSP (25 μg/ml). After incubation for 3 hours at 37° C., aliquots were removed and analyzed by SDS-PAGE (4-20% gradient gel) (Invitrogen, Carlsbad, Calif.) followed by exposure to X-ray films.

bone marrow macrophages = assay: Inhibition of nitric oxide (NO) synthesis in bone marrow macrophages; type: cell-based, mouse; conditions: pro-MSP 10 ng/ml mixed with hepsin 1 nM and Fab25 500 nM, 24 hours, LPS
Protocol: Inhibition of NO synthesis by mature MSP: Bone marrow cells obtained from collected mouse femurs were pipetted to a single-cell suspension and then spun down. Red blood cells were lysed by incubation with erythrocyte lysis buffer for 5 minutes at room temperature. Cells were then suspended in macrophage differentiation medium (DMEM with glutamine containing 10% FBS, Pen/Strep and 50 ng/ml recombinant mCSF-1). Cells were then plated onto sterile 24-well non-tissue culture dishes. Medium was changed the next day and subsequently every 2 days. After 6 days in culture, the macrophages were mature and these mature cells were washed in serum-free DMEM and further incubated for 2 hours. Different reactions (total volume 300 μL) as indicated in the figure consisting of recombinant MSP (10 ng/ml), pro-MSP (10 ng/ml), hepsin (1 nM) and Fab25 (500 nM) were added to the respective wells and cultured for 24 hours at 37° C. in a tissue culture incubator. NO production was quantified using Griess reaction (Molecular Probes) according to manufacturer's recommendation.

peritoneal macrophages = assay: Peritoneal macrophage chemotaxis assay; type: cell-based, mouse; conditions: pre-treatment with inhibitor
Protocol: Peritoneal macrophage chemotaxis and morphology change assay: Murine peritoneal resident macrophages were obtained from C57BL/6 mice by washing the peritoneal cavity with 15 ml per mouse of serum-free RPMI-1640 medium. Cells were washed and resuspended in RPMI-1640 medium containing 25 mM Hepes at a concentration of 1×10^6 cells·mL^−1. The macrophage chemotaxis assay was performed using a QCM chemotaxis assay kit with a pore size of 5 μm (Millipore). One hundred microliters of the peritoneal macrophage suspension (i.e. 10^5 cells) were added to the upper wells of the Chemotaxis cells. The bottom wells were filled with RPMI-1640 medium containing purified pro-MSP either alone or hepsin-treated at 37 C for 2 hours. The recombinant active form of human MSP (R&D Systems) was used as a positive control. After incubation at 37 C for 4 hours, the cells on the upper surface of the membrane were wiped off with a cotton swab and the migrated cells were detached using detachment buffer as per manufacturer's recommendations. Aliquots from different wells were incubated with a mixture of lysis buffer and CYPRO dye for 15 minutes. Migration was quantified by measuring the fluorescence using a microplate reader (Spectramax-M5, Molecular devices, Sunnyvale, Calif.) at an excitation wavelength of 480 nm and emission wavelength of 520 nm.

T1 sequence (P05981 whole entry): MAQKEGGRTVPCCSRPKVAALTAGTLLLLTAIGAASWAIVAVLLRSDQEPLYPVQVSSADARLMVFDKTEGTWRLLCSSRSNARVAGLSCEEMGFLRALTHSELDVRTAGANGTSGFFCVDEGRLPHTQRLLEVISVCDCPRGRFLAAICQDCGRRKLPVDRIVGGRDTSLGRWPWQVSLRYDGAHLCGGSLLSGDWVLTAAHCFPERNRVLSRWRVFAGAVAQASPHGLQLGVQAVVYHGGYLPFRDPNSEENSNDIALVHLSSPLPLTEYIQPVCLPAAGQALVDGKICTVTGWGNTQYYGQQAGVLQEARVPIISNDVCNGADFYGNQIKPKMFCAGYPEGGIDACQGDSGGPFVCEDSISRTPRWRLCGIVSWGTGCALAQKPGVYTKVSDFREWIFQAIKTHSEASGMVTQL

blocking of pro-MSP proteolytic cleavage by cell surface hepsin [1]: effectively blocked
B1: Fab25: anti-hepsin antibody Fab that blocks hepsin activation of pro-MSP (antibody, V domains shown)
VH: EVQLVESGGGLVQPGGSLRLSCAASGFNFSYSYMHWVRQAPGKGLEWVASIYSYYGSTYYADSVKGRFTISADTSKNTAYLQMNSLRAEDTAVYYCARSDSWSYKSGYTQKIYSKGLDYWGQGTLVTVSS
VL: DIQMTQSPSSLSASVGDRVTITCRASQSVSSAVAWYQQKPGKAPKLLIYSASSKGVPSRFSGSRSGTDFTLTISSLQPEDFATYYCQQYYSSYYLLTFGQGTKVEIK
effect of anti-hepsin antibody on attenuation of NO production by hepsin-activated MSP (bone marrow macrophages): did not inhibit robust production of nitric oxide
effect of anti-hepsin antibody on attenuation of NO production by hepsin-activated MSP (bone marrow macrophages; listed as anti-hepsin antibody): completely inhibited
effect of anti-hepsin inhibitor pre-treatment on migration of macrophages induced by hepsin-treated pro-MSP (peritoneal macrophages): marked reduction
